For this assay, the target named is GAD-SNX5, C-terminally truncated splice variant of SNX5 lacking the last 45 amino acids. Description: yeast two-hybrid β-galactosidase liquid assay. Particulars: mean of four transformants with SD; parent: est. 190; read off a plot.

For the substance “LexA-VPS13A(VAB), LexA DNA-binding domain fusion to the VAB domain of VPS13A (from UniProt Q96RL7) N2418S”, the response stood at 21 U.

The values above are taken from article PMC10053439.
